“Also recorded” adds a separate entry of the source. Where a SMILES comes first, the peptide text is derived from it. Where no end group is shown, it is not given here. [ ]: non-standard residue; d: D form. pY = N[C@@H](Cc1ccc(OP(=O)(O)O)cc1)C(=O)O
How the values were obtained:
[1] = target: T1, full length Shc (1 – 473) (Homo sapiens, UniProt P29353); experiment: ITC binding to full length Shc; details: full-length Shc titrated by bi-β3, Ins(1,4,5)P3 at 3 to 1
T1 construct: The vector of pET28a-full length Shc (1 – 473), generously provided by Dr. Ladbury; His-tag (N); made in house; host or cells: E. coli BL21 (DE3), pET28a (vector a gift from Dr. Ladbury)
T1 sequence (P29353 1-473 isoform P29353-2): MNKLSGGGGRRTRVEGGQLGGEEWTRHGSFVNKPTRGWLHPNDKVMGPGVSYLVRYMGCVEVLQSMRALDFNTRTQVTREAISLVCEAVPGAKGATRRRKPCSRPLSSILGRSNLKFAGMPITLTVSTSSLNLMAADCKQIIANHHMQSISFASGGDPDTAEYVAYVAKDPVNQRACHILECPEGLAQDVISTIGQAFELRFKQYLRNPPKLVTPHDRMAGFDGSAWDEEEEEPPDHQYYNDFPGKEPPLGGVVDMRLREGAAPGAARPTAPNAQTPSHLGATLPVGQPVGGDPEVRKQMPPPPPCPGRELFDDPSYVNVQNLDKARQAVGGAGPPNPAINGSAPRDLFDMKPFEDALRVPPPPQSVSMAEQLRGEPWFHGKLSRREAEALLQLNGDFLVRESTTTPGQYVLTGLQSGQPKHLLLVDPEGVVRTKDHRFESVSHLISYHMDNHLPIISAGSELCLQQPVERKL
Procedure: The Shc PTB domain (17 – 207) containing the pET15b vector was transformed into a Rosetta (DE3) cell line to pursue optimal expression levels. SH2 domain (380 – 473) was cloned into NdeI and XhoI sites in pET21b vector and then transformed into a BL21 (DE3) cell line. The vector of pET28a-full length Shc (1 – 473), generously provided by Dr. Ladbury (University of Texas MD Anderson Cancer Center, TX), was expressed in a BL21 (DE3) cell line as well. Typically, 10 ml overnight culture was used to inoculate 1 liter LB broth. Cells were grown at 37°C until OD600 reached 0.6. At this point the culture was cooled to room temperature and then the overnight overexpression was induced by 1 mM isopropyl-β-D-thiogalactopyranoside. Harvested cells were kept at −20°C for future purification or resuspended in lysis buffer supplemented with protease inhibitors. Cells were further lysed by french press and the cell debris was removed by centrifugation at 18,000 rpm at 4°C. […] The overexpression of the target protein and the purified protein were confirmed by SDS-PAGE and the bands of the expected mass were observed. […]
Calorimetric measurements of a full length Shc, PTB domain, and SH2 domain to β3 phosphopeptides or PtdIns were performed on a low volume Nano ITC (TA Instruments). […] The concentration of protein samples was determined by UV measurements. […]

[2] = target: T2, Shc PTB domain (17 – 207) (Homo sapiens, UniProt P29353); experiment: ITC binding to Shc PTB domain; details: PtdIns binding to PTB domain, ITC, 25°C
T2 construct: The Shc PTB domain (17 – 207) containing the pET15b vector was transformed into a Rosetta (DE3) cell line; His-tag (N); made in house; host or cells: E. coli Rosetta (DE3), pET15b
T2 sequence (P29353 17-207 isoform P29353-2): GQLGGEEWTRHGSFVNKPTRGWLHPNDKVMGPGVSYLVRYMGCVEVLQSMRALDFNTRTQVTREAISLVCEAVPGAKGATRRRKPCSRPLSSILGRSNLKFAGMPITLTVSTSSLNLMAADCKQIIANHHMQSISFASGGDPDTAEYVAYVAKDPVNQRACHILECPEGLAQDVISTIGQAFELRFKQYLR
Procedure: The Shc PTB domain (17 – 207) containing the pET15b vector was transformed into a Rosetta (DE3) cell line to pursue optimal expression levels. SH2 domain (380 – 473) was cloned into NdeI and XhoI sites in pET21b vector and then transformed into a BL21 (DE3) cell line. The vector of pET28a-full length Shc (1 – 473), generously provided by Dr. Ladbury (University of Texas MD Anderson Cancer Center, TX), was expressed in a BL21 (DE3) cell line as well. Typically, 10 ml overnight culture was used to inoculate 1 liter LB broth. Cells were grown at 37°C until OD600 reached 0.6. At this point the culture was cooled to room temperature and then the overnight overexpression was induced by 1 mM isopropyl-β-D-thiogalactopyranoside. Harvested cells were kept at −20°C for future purification or resuspended in lysis buffer supplemented with protease inhibitors. Cells were further lysed by french press and the cell debris was removed by centrifugation at 18,000 rpm at 4°C. […] The overexpression of the target protein and the purified protein were confirmed by SDS-PAGE and the bands of the expected mass were observed. The determination of protein concentration by UV measurement was consistent with Bradford assay.
Calorimetric measurements of a full length Shc, PTB domain, and SH2 domain to β3 phosphopeptides or PtdIns were performed on a low volume Nano ITC (TA Instruments). All experiments were carried out in a buffer of 50 mM Tris, pH 7.5, 100 mM NaCl, 5 mM β-mercaptoethanol (unless described otherwise) at 12°C or 25°C with a stirring speed of 250 rpm to minimize the precipitation of the protein. 300 second time intervals were set between injections. The concentration of protein samples was determined by UV measurements. The titrants (β3 phosphopeptides or PtdIns) were prepared in the same buffer by the dilution of higher concentration stocks. The concentrations of the protein ranged from 30 μM to 150 μM. The concentration of protein was examined after each ITC experiment by UV to ensure the stability of proteins under the test condition. The analysis of the data was done with Nano Analyze Software (TA Instruments) suite using an “independent” model.

[3] = target: T3, Shc PTB domain (17 – 207) (UniProt P29353-2 17-207); experiment: ITC; Nano ITC; β3 phosphopeptide titrated into the Shc protein over-saturated by Ins(1,4,5)P3 at 3 to 1 lipid to protein ratio; 12°C; details: both partners purified
T3 construct: Shc adaptor protein (p52 isoform), PTB domain, residues 17-207, from a pET15b vector; numbers count on: the p52 isoform (full length 1-473); 15N-labelled (M9 medium with 15NH4Cl) for the NMR experiments; Monomeric on Superdex-75; also called apo PTB domain; source: E. coli Rosetta (DE3), purified (Ni-NTA, Superdex-75)
T3 sequence (looked up): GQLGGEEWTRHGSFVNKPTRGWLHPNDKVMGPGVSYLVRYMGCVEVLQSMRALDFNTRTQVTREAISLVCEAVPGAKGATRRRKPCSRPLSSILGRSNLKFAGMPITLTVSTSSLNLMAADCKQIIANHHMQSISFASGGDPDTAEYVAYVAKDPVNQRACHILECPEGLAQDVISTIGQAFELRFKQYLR

[4] = target: T4, full length Shc (1 – 473) (UniProt P29353-2 1-473); experiment: as above; details: both partners purified
T4 construct: Shc adaptor protein, full length 1-473 (printed length 473 residues, the p52 isoform), from a pET28a vector provided by Dr. Ladbury; numbers count on: the p52 isoform; Monomeric on Superdex-75; also called Shc full length; p52 Shc; source: E. coli BL21 (DE3), purified (Ni-NTA, Superdex-75)
T4 sequence (looked up): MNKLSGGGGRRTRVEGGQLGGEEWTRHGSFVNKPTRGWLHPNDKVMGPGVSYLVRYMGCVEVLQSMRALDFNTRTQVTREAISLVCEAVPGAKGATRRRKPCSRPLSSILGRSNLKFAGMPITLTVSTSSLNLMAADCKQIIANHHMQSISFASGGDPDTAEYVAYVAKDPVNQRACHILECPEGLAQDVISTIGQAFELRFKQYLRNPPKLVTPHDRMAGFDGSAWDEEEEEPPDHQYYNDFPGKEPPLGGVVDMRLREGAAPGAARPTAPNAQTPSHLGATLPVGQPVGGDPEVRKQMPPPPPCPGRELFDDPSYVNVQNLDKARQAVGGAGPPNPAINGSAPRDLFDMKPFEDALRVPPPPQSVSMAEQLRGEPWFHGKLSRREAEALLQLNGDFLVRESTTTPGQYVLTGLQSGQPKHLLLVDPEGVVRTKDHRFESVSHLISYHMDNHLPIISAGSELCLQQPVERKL

[5] = target: T3, Shc PTB domain (17 – 207); experiment: ITC; Nano ITC; β3 phosphopeptide titrated into the Shc protein (30-150 μM); 25°C; 50 mM Tris, pH 7.5, 100 mM NaCl, 5 mM β-mercaptoethanol; independent model; details: both partners purified
[6] = target: T4, full length Shc (1 – 473); experiment: as above; details: both partners purified
[7] = target: T3, Shc PTB domain (17 – 207); experiment: as above; details: both partners purified; remark: listed apart in the source
[8] = target: T4, full length Shc (1 – 473); experiment: as above; details: both partners purified; remark: listed apart in the source
[9] = target: T3, Shc PTB domain (17 – 207); experiment: ITC; Nano ITC; β3 phosphopeptide titrated into the Shc protein (30-150 μM); 12°C; 50 mM Tris, pH 7.5, 100 mM NaCl, 5 mM β-mercaptoethanol; independent model; details: both partners purified
[10] = target: T4, full length Shc (1 – 473); experiment: as above; details: both partners purified

Molecule: CC[C@H](C)[C@H](NC(=O)[C@H](CC(N)=O)NC(=O)[C@@H](NC(=O)[C@H](Cc1ccccc1)NC(=O)[C@@H](NC(=O)[C@H](CO)NC(=O)[C@@H](NC(=O)[C@H](C)NC(=O)[C@H](CCC(=O)O)NC(=O)[C@H](CCCCN)NC(=O)[C@H](Cc1ccc(OP(=O)(O)O)cc1)NC(=O)[C@H](CC(C)C)NC(=O)[C@@H]1CCCN1C(=O)[C@H](CC(N)=O)NC(=O)[C@H](CC(N)=O)NC(=O)[C@H](C)NC(=O)[C@@H](NC(=O)[C@H](CC(=O)O)NC(=O)[C@H](Cc1c[nH]c2ccccc12)NC(=O)[C@H](CCCCN)NC(=O)[C@H](C)NC(=O)[C@@H](N)CCCNC(=N)N)[C@@H](C)O)[C@@H](C)O)[C@@H](C)O)[C@@H](C)O)C(=O)N[C@H](C(=O)N[C@@H](Cc1ccc(OP(=O)(O)O)cc1)C(=O)N[C@@H](CCCNC(=N)N)C(=O)NCC(=O)N[C@H](C(=O)O)[C@@H](C)O)[C@@H](C)O [bi-β3] (H-RAKWDTANNPL[pY]KEATSTFTNIT[pY]RGT-OH)
- change in Kd caused by Ins(1,4,5)P3 [1]: slight reduction of Kd value

Molecule: Phosphatidylinositol-5-phosphate [PtdIns(5)P1]
- Kd ([2]; 50 mM Tris pH 7.5, 100 mM NaCl, 5 mM β-mercaptoethanol, "independent" model, dihexanoyl- or dioctonoyl- PtdIns): not able to detect the binding; also recorded: does not show to bind; also recorded: No binding
- ΔG ([2]; pH 7.5): No binding
- ΔH ([2]; pH 7.5): No binding
- −TΔS ([2]; pH 7.5): No binding

B1: c-β3: β3 integrin derived peptide phosphorylated at C-terminal tyrosine (Y759) (peptide)
peptide: ATSTFTNIT[pY]RGT
notes: integrin β3 cytoplasmic tail, residues 750-762, Y759 phosphorylated; also called mono-phosphorylated peptide; source: synthetic peptide (NEO-Peptide)
- Kd [3]: 1120 nM
- dH [3]: -5.65 kcal/mol
- Kd [4]: 870 nM
- dH [4]: -5.05 kcal/mol
- Kd [5]: 350 nM
- dH [5]: -6.07 kcal/mol
- Kd [6]: 1330 nM
- dH [6]: -1.77 kcal/mol
- Kd [7]: 340 nM
- stoichiometry N [7]: 1 ± 0.15
- stoichiometry N [8]: 1 ± 0.15
- Kd [9]: 1050 nM
- dH [9]: -5.78 kcal/mol
- Kd [10]: 820 nM
- dH [10]: -5.03 kcal/mol

Source: paper PMC4397963, “Phospho-Tyrosine(s) vs. Phosphatidylinositol Binding in Shc Mediated Integrin Signaling” (American journal of molecular biology, 2015)
